According to patent US20100311605A1, “SENSING PLATFORM” (NATIONAL CHIAO TUNG UNIVERSITY, priority 2009, published 2010):

T1: MMP-2 (Homo sapiens, UniProt P08253)
T1 construct: purchased Sigma-Aldrich, USA
T1 sequence (P08253 110-660): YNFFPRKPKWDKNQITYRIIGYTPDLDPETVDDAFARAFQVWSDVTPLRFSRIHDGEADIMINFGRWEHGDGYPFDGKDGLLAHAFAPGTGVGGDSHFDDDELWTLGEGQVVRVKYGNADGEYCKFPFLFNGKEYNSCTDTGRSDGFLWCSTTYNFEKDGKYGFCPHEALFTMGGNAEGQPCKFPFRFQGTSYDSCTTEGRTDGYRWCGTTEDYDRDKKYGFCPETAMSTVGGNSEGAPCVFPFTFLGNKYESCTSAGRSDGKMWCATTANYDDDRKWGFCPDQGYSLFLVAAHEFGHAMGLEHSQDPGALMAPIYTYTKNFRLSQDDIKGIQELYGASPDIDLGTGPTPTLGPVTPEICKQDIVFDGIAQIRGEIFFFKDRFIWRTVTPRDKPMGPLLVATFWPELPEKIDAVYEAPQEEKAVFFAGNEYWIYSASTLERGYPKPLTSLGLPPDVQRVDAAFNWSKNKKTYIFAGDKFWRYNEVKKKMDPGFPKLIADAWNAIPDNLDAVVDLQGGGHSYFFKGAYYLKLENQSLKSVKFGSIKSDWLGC

B1: trypsin: proteinase detected by the sensing platform (protein, UniProt P00760 24-246, looked up)
Serine protease 1: IVGGYTCGANTVPYQVSLNSGYHFCGGSLINSQWVVSAAHCYKSGIQVRLGEDNINVVEGNEQFISASKSIVHPSYNSNTLNNDIMLIKLKSAASLNSRVASISLPTSCASAGTQCLISGWGNTKSSGTSYPDVLKCLKAPILSDSSCKSAYPGQITSNMFCAGYLEGGKDSCQGDSGGPVVCSGKLQGIVSWGSGCAQKNKPGVYTKVCNYVSWIKQTIASN

Columns and labels:
[1] = target: T1, MMP-2; test: Test of MMP-2 suppressor activity and specificity with AuNPs/MCH-gelatin sensing platform; format: biochemical; settings: 37° C., 30 minutes; for suppression of MMP-2 activity (ratios A625/A525 versus control group): suppressor solution 10 mM, 0.5 μL MMP-2 (100 ng/μL), FIG. 6
Method: Buffer solutions containing different concentrations of ONO-4817 were added respectively into the solution of AuNPs/MCH-gelatin in a cuvette, and the concentrations of the solutions of AuNPs/MCH-gelatin were adjusted to give an OD525=1.
(§1) Then, a solution of a highly concentrated proteinase suppressor ONO-4817 or A1AT (10 mM) was added to give a mixture. The mixture was placed in a water bath at 37° C. for 30 minutes to allow the reaction. A change in wavelength was measured by a spectrophotometer, and the ratios (A625/A525) of the values measured at wavelengths of 625 nm and 525 nm were calculated.

[2] = target: T1, MMP-2; settings: read-out: enzyme inhibition constant (Ki); cited from earlier work
[3] = test system: trypsin; test: Specificity test of proteinase suppressors with AuNPs/MCH-gelatin sensing platform, trypsin; format: biochemical; settings: suppressor solution 10 mM; 0.5 μL trypsin (100 ng/μL); 37° C., 30 minutes; FIG. 6
Method: as §1

[4] = test system: AuNPs/MCH-gelatin; test: Activity test of proteinase (trypsin) on AuNPs/MCH-gelatin; format: biochemical; settings: 37° C., 10 minutes
Description: Different concentrations of trypsin were used for detection.
Ratios (A625/A525) of the measured values at wavelengths of 625 nm and 525 nm are used as a basis for detection, so as to correct the error of waveform overlapping caused by changes to the sizes of the AuNPs. The ratios (A625/A525) of the groups are in the following: 0.2127 for A, 0.2131 for B, 0.2134 for C, 0.2554 for D, 0.4236 for E, 0.5674 for F, 0.6114 for G and 0.6484 for H. The ratios and the trypsin concentrations are shown in FIG. 3I, wherein when the trypsin concentrations are from 1.25×10^−1 U to 1.25×10^2 U, the wavelength changes and the trypsin concentrations are positively associated.

Row | Molecule | suppression of MMP-2 activity (waveform change, A625/A525) ([1]; different concentrations of ONO-4817 (0.0125 to 512 nM), 0.5 μL MMP-2 (100 ng/μL) in 200 μL AuNPs/MCH-gelatin, FIG. 5) | suppression of MMP-2 activity (ratios A625/A525 versus control group) [1] | Ki [2] [nM] | suppression of trypsin activity (ratios A625/A525 versus control group) [3] | ratio A625/A525 ([4]; group B, 1.25×10^−3 U of trypsin) | ratio A625/A525 ([4]; group C, 1.25×10^−2 U of trypsin) | ratio A625/A525 ([4]; group D, 1.25×10^−1 U of trypsin) | ratio A625/A525 ([4]; group E, 1.25×10^0 U of trypsin) | ratio A625/A525 ([4]; group F, 1.25×10^1 U of trypsin) | ratio A625/A525 ([4]; group G, 1.25×10^2 U of trypsin) | ratio A625/A525 ([4]; group H, 1.25×10^3 U of trypsin)
1 | CCOCOC[C@H](C[C@H](C)C(=O)NO)NC(=O)c1ccc(Oc2ccccc2)cc1 [ONO-4817] | can suppress the activity of MMP-2 | can suppress the activity of MMP-2 | 0.72 | significantly increase | – | – | – | – | – | – | –
2 | A1AT: trypsin suppressor; cannot suppress the activity of MMPs | – | not suppressed | – | can effectively suppress the activity of trypsin | – | – | – | – | – | – | –
3 | B1 | – | – | – | – | 0.2131 | 0.2134 | 0.2554 | 0.4236 | 0.5674 | 0.6114 | 0.6484
